Data set [1] addresses T1, SsbB (native) (Neisseria gonorrhoeae MS11, UniProt Q5EP75 1-143).
T1 sequence: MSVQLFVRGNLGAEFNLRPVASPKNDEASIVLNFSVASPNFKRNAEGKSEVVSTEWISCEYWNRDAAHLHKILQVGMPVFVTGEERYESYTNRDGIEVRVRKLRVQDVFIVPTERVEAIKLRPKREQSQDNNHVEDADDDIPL
Briefly: EMSA (Coomassie); 1 uM tetramer, 5 uM oligo; minimal frame for one tetramer; EMSA: SBA buffer (10 mM NaOH, 2 mM EDTA, boric acid to pH 7.5), optional 10 mM MgCl2 and/or NaCl up to 500 mM, 4 C 15 min; AFM: 20 mM Tris pH 7.5, 150 mM NaCl. The note with it: protein: recombinant; tags: none; chain copies: 4.

Data set [2] concerns the target T1, SsbB (native). The data set is described as follows: tryptophan fluorescence titration; biphasic; 1 oligo per tetramer high affinity, second much weaker; EMSA: SBA buffer (10 mM NaOH, 2 mM EDTA, boric acid to pH 7.5), optional 10 mM MgCl2 and/or NaCl up to 500 mM, 4 C 15 min; AFM: 20 mM Tris pH 7.5, 150 mM NaCl. The note with it: protein: recombinant; tags: none; chain copies: 4.

Data set [3] has as its target T1, SsbB (native). Briefly: EMSA; stoichiometric at 8 nM DNA; 1 tetramer per oligo; Cy3 raises affinity at least 10-fold; EMSA: SBA buffer (10 mM NaOH, 2 mM EDTA, boric acid to pH 7.5), optional 10 mM MgCl2 and/or NaCl up to 500 mM, 4 C 15 min; AFM: 20 mM Tris pH 7.5, 150 mM NaCl. The note with it: protein: recombinant; tags: none; chain copies: 4; label: 5' Cy3. On the technique in general: Mobility shift assays separate free from complexed probe on a gel.

The target of data set [4] is T1, SsbB (native). Briefly: EMSA; SBA buffer; (SsbB)4 concentration; one and two tetramer complexes; EMSA: SBA buffer (10 mM NaOH, 2 mM EDTA, boric acid to pH 7.5), optional 10 mM MgCl2 and/or NaCl up to 500 mM, 4 C 15 min; AFM: 20 mM Tris pH 7.5, 150 mM NaCl. The note with it: protein: recombinant; tags: none; chain copies: 4; label: 5' 32P.
Data set [5] concerns the molecule itself. Briefly: SEC; gel filtration chromatography of the purified proteins; single peaks; data not shown. Background: SEC sorts molecules by how far they enter the pores of the column.
Data set [6] deals with T1, SsbB (native). Briefly: EMSA (Coomassie); 1 uM tetramer, 0.25 uM oligo; minimal frame for two tetramers; EMSA: SBA buffer (10 mM NaOH, 2 mM EDTA, boric acid to pH 7.5), optional 10 mM MgCl2 and/or NaCl up to 500 mM, 4 C 15 min; AFM: 20 mM Tris pH 7.5, 150 mM NaCl. The note with it: protein: recombinant; tags: none; chain copies: 4.

With TTTTTTTTTTTTTTT (ssDNA) [dT15], the binding result with SsbB (native) [1] is given as “binds”.
Take TTTTTTTTTTTTTTTTTTTTTTTTTTTTTTTTTTTTTTTTTTTTT (ssDNA) [dT45]: the binding result with SsbB (native) [2] is reported as “binds”.
On to TTTTTTTTTTTTTTTTTTTTTTTTTTTTTTTTTTT (ssDNA) [Cy3-dT35], for which the binding result with SsbB (native) [3] was “binds”.
On to TTTTTTTTTTTTTTTTTTTTTTTTTTTTTTTTTTT (ssDNA) [dT35], for which, in the data set with SsbB (native) [2], the binding result was “binds”.

B1: 32P-dT75 (ssDNA)
DNA: TTTTTTTTTTTTTTTTTTTTTTTTTTTTTTTTTTTTTTTTTTTTTTTTTTTTTTTTTTTTTTTTTTTTTTTTTTT
As for B1, in the data set with SsbB (native) [4], the Kd was about 100 nM.
For TTTTTTTTTTTTTTTTTTTTTTTTT (ssDNA) [dT25], the binding result with SsbB (native) [2] was “binds”.

B2: native SsbB (single stranded DNA binding protein SsbB encoded in the Gonococcal Genetic Island of Neisseria gonorrhoeae) (natural protein, UniProt Q5EP75 1-143, looked up)
chain: T1 sequence
notes: expressed as the native (untagged) protein; also called WT; GGI SSB; source: E. coli C43 (DE3), purified (Hi-Trap Q, DNA-cellulose, Superdex SD200)
B2: in data set [5], the “stoichiometry N” value worked out at 4.

B3: His-tagged SsbB (natural protein, Neisseria gonorrhoeae, UniProt Q5EP75 1-143, looked up)
chain: T1 sequence
notes: also called N- His- tagged SsbB; source: E. coli C43 (DE3), purified (Hi-Trap Chelating Ni, Hi-Trap Q, Superdex SD200); not shown: His tag, N-terminal, kept
For the molecule B3, in data set [5], the “stoichiometry N” value amounted to 4.

B4: OneSTrEP-tagged SsbB (natural protein, Neisseria gonorrhoeae, UniProt Q5EP75 1-143, looked up)
chain: T1 sequence
notes: source: E. coli C43 (DE3), purified (Strep-tactin Sepharose, Hi-Trap Q, Superdex SD200); not shown: OneSTrEP tag, N-terminal, kept
In the case of B4, the “stoichiometry N” value in data set [5] is 4.

B5: dT70 (ssDNA)
DNA: TTTTTTTTTTTTTTTTTTTTTTTTTTTTTTTTTTTTTTTTTTTTTTTTTTTTTTTTTTTTTTTTTTTTTT
With B5, the binding result with SsbB (native) [6] is “binds”.

The Kd is the free concentration of one partner at which half of the binding sites on the other are occupied at equilibrium, for simple one-to-one binding. A word on the stoichiometry N: it is a count of units in the complex or per binding partner.

The record behind these values is paper PMC3334931, “Characterization of the Single Stranded DNA Binding Protein SsbB Encoded in the Gonoccocal Genetic Island” (PLoS ONE, 2012).
